Two substances from publication PMC9893541 can be followed below.

The test deals with T1, GDF5 homodimer (human) (UniProt P43026).
T1 sequence: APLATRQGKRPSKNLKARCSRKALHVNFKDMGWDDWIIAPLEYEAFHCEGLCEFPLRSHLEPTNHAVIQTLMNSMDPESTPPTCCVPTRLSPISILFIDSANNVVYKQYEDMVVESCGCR

Sequence of Noggin (Q13253 28-232): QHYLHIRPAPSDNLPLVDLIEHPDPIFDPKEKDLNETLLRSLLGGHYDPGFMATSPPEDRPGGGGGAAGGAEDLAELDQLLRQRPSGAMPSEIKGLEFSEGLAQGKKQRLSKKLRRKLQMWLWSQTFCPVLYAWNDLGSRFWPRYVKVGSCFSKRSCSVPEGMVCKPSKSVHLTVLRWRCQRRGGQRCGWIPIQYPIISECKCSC

In turn, “Gremlin-2 (from UniProt O88273 22-168) (natural protein)” yielded an IC50 of inhibition of signalling by 5 nM GDF5, luciferase reporter in BRITER osteoblast cells of 38 nM.

“Noggin (from UniProt Q13253 28-232) (natural protein)”: the IC50 of inhibition of signalling by 5 nM GDF5, luciferase reporter in BRITER osteoblast cells was 42 nM.
